Test [1] deals with T1, human ADAMTS-4 lacking the C-terminal spacer domain (Homo sapiens, UniProt O75173).
T1 construct: Recombinant human ADAMTS-4 lacking the C-terminal spacer domain; made in house
T1 sequence (O75173 213-685 limits assumed): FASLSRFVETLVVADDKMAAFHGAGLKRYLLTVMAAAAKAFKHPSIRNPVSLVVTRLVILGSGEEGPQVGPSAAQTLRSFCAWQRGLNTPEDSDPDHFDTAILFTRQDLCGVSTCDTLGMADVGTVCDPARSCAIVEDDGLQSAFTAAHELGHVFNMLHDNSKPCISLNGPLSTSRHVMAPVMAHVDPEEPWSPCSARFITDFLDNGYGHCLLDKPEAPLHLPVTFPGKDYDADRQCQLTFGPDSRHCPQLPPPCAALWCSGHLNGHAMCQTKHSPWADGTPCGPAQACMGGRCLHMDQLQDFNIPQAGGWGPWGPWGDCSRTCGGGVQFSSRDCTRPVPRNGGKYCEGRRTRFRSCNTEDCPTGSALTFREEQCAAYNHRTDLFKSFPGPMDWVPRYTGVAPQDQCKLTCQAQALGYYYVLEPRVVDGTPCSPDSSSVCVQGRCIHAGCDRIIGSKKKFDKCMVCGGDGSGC
The test is described as follows: ADAMTS-4 inhibition, bovine aggrecan digestion, anti-GELE Western blot. The format is biochemical. Conditions: 0.5 nM ADAMTS-4, 1 mg/ml bovine aggrecan, 37° C., 2 h; read-out: Ki(app) ADAMTS-4. On the procedure: ADAMTS-4 lacking the spacer domain (0.5 nM) was incubated with N-TIMP-3 mutants at the concentration indicated for 30 min and then incubated with 1 mg/ml of bovine aggrecan at pH 7.5 for 2 h at 37° C. The reaction was terminated with 10 mM EDTA and samples were deglycosylated and subjected to Western blotting analysis using antibodies that recognise the fragments with the C-terminal GELE1480 as described by Little et al. The bands were quantified by densitometric analyses.
Recombinant human ADAMTS-4 lacking the C-terminal spacer domain was prepared and expressed as described (Kashimagi, M. et al. J. Biol. Chem. 279, 10109-10119, 2004), and bovine cartilage aggrecan was purified according to Hascall and Sajdesa (J. Biol. Chem. 244, 2384-2396, 1969). Antibody that recognized the fragment with the C-terminal GELE was described by Kashiwagi et al (2004). To examine the inhibition of ADAMTS-4 by (-1A) N-TIMP-3 and N-TIMP-3(T2G), 0.5 nM ADAMTS-4 was incubated with a various concentration of the inhibitor for 30 mins at room temperature and then with 1 mg/ml of bovine aggrecan at 37° C. for 2 h. […] The products were then precipated with 10 vol. of acetone and subjected to Western blotting analysis with the anti-GELE antibody as primary antibody and developed as described by Little et al. The staining intensity of the band was quantified by densitometric analysis.

The target of test [2] is T2, catalytic domain of stromelysin 1 (MMP-3(ΔC)) (Homo sapiens, UniProt P08254).
T2 construct: the catalytic domains of stromelysin 1 (MMP-3(ΔC)) and membrane-type 1 MMP (MMP-14)
Conditions: Table I; data taken from ref. 8; read-out: Ki(app) MMP-3(ΔC); cited from earlier work.

The test system of test [3] is aggrecanase activity in IL-1α- and retinoic acid-stimulated cartilage. The test can be described thus: Aggrecanase-generated aggrecan fragments in cartilage conditioned media, Western analysis. The format is cell-based. As to conditions: IL-1α- and retinoic acid-stimulated cartilage. The text has this: Aggrecan fragments released into the conditioned medium are deglycosylated by digestion with chondroitinase ABC and keratanase and the samples are subjected to SDS/PAGE and Western blotting analysis as described by Little et al.. The primary antibodies used to detect aggrecanase-generated and MMP-generated aggrecan fragments are BC-3 and BC-14, respectively. Antigen-antibody complexes are detected by anti-mouse AP-linked donkey antibody and the AP substrate.
Conditioned media from the above experiments were analyzed by monoclonal antibodies that recognize either the aggrecanase-generated aggrecan neoepitope ARGSV or the MMP-generated aggrecan neoepitope FFGVG. In concordance with GAG release, there was an increase in the amount of aggrecanase-generated aggrecan fragments released upon treatment with either stimulus, but no MMP-generated fragments were detected.

The test system of test [4] is porcine articular cartilage. The test can be described thus: IL-1α-stimulated porcine articular cartilage degradation, GAG release (DMMB). The test is classed as cell-based. As to conditions: IL-1α 10 ng/ml, 3 days. On the procedure: FIG. 7. Inhibition of IL-1a stimulated porcine articular cartilage degradation by N-terminal mutants of N-TIMP-3. Porcine articular cartilage pieces were cultured for three days. Cartilage was stimulated with IL-1α (10 ng/ml) with TIMPs at the concentrations indicated. Glycosaminoglycan (GAG) release in the media was measured by dimethyl methylene blue (DMMB).
Porcine articular cartilage from the metacarpophalangeal joints of 3-9 month old pigs is dissected into small shavings approximately 3 mm long and 2-3 mm wide. After dissection, the cartilage is allowed to rest for 24 h at 37° C. under 5% CO2 in DMEM containing penicillin-streptomycin, amphotericin B, and 5% fetal calf serum. The medium is then replaced with fresh media and the cartilage is rested for a further 24-48 h. […]
GAG released into the conditioned media is measured in duplicate using a modification of the dimethylmethylene blue (DMMB) assay as described in Farndale et al.. […] The % of total GAG released into the medium is calculated as follows: % of total GAG released=(total GAG in the medium)/(total GAG in the medium+total GAG remaining in the cartilage).
Porcine articular cartilage pieces were cultured for 3 days. […] Glycosaminoglycan (GAG) release in the media was measured by dimethyl methylene blue (DMMB).

T2 sequence (P08254 100-272 limits assumed, stated change not applied): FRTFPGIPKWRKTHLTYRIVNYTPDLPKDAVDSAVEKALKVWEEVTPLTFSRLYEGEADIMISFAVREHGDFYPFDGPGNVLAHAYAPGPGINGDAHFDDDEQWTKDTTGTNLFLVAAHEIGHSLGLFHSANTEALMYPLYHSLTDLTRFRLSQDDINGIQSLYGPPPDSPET

B1: -1A: N-TIMP-3 mutant with the addition of an N-terminal alanine extension (-1A) (protein)
chain: ACTCSPSHPQDAFCNSDIVIRAKVVGKKLVKEGPFGTLVYTIKQMKMYRGFTKMPHVQYIHTEASESLCGLKLEVNKYQYLLTGRVYDGKMYTGLCNFVERWDQLTLSQRKGLNYRYHLGCN
Regarding B1, in test [1], the Ki was 18 nM.

B2: N-TIMP-3: N-terminal inhibitory domain of TIMP-3 (residues 1 to 121), C-terminally His-tagged, wild-type (protein)
chain: CTCSPSHPQDAFCNSDIVIRAKVVGKKLVKEGPFGTLVYTIKQMKMYRGFTKMPHVQYIHTEASESLCGLKLEVNKYQYLLTGRVYDGKMYTGLCNFVERWDQLTLSQRKGLNYRYHLGCN
On to B2, for which the Ki in test [2] is 67 ± 2.8 nM. Also, the entries for the “Release of aggrecanase-generated aggrecan fragments” value in test [3] (0.05 μM) and in test [3] (0.1 μM) were “partially inhibited” and “completely blocked”, respectively. Besides, the “Inhibition of IL-1α stimulated cartilage degradation (GAG release)” value in test [4] is on record as “dose dependently inhibited degradation”.
